Results: US20220409751A1 (NORTHSTAR MEDICAL TECHNOLOGIES, published 2022)

What was measured:
[1] = target: urokinase plasminogen activator receptor (uPAR) (UniProt Q03405); experiment: direct binding assay
soluble uPAR (suPAR) = target: T1, soluble uPAR (suPAR) (UniProt Q03405 23-305, limits assumed); experiment: SPR (Biacore 2000), antibody captured on protein A/G surface, suPAR as analyte, 25 C, 1:1 Langmuir fit
T1 construct: Analyte in the Biacore capture assay
Description: The HE™ variants were diluted to 1 μg/mL and injected over a protein A/G surface. Antibody injections were optimized to produce antibody densities of 100-200 RU.
Six serial 3-fold dilutions of soluble uPAR (suPAR) were prepared in running buffer (PBS), and each dilution was injected in triplicate in random order at 25° C. Buffer injections were evenly distributed throughout the run. The sample injections were double-referenced against the blank flow cells and buffer injections to correct for any bulk shift or non-specific binding. Data were analyzed with BiaEvaluation software from Biacore®. Sensorgrams were fit utilizing a 1:1 Langmuir model.

T1 sequence (Q03405 23-305 limits assumed): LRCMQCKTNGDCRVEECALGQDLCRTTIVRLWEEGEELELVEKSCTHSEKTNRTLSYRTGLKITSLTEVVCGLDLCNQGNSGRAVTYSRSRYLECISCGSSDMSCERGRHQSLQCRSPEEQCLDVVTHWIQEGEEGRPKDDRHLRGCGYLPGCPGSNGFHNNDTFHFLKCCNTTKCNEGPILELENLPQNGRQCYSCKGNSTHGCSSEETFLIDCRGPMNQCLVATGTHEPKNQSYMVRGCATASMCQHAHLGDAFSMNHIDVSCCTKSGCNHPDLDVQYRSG
urokinase plasminogen activator receptor (uPAR), sequence (Q03405 23-305 limits assumed): as above

Row | Kd [1] [nM] | Kd (soluble uPAR (suPAR)) [nM] | Molecule
1 | 1 | – | mouse monoclonal antibody ATN-658
2 | – | 0.28 | HE ™ ATN-1 (antibody, IgG1, V domains shown, V regions cloned into transient expression vectors with human gamma-1 and kappa constant region modules (IgG1, kappa); made in HEK293E cells) VH: EVQLVQSGPEVVKTGASVKISCKASGYSFTSYYMHWVKQAHGQGLEWIGEINPYNGGASYNQKIKGRATFTVDTSTRTAYMEFSSLRSEDTAVYYCARSIYGHSVLDYWGQGTLVTVSS VL: DVVMTQSPLSLSVTIGEPASISCRSSQSLLDSDGKTYLNWLLQKPGQSPKRLIYLVSKRDSGVPDRFSGSGSGTDFTLKISRVEAEDVGVYYCWQGTHFPLTFGQGTKLEIK
3 | – | 0.39 | HE ™ ATN-4 (renamed MNPR-101) (antibody, human IgG1, kappa, V domains shown, IgG1 kappa; In the Biacore assay the transiently expressed (HEK293E), unconjugated antibody was used; also called mAb MNPR-101; humanized mAb MNPR-101) VH: EVQLVQSGPEVKKTGASVKISCKASGYSFTSYYMHWVRQAHGQGLEWIGEINPYNGGASYNQKIQGRATFTVDTSTSTAYMEFSSLRSEDTAVYYCARSIYGHSVLDYWGQGTLVTVSS VL: DVVMTQSPLSLSVTIGEPASISCRSSQSLLDSDGKTYLNWLLQKPGQSPQRLIYLVSKRDSGVPDRFSGSGSGTDFTLKISRVEAEDVGVYYCWQGTHFPLTFGQGTKLEIKR
4 | – | 0.28 | HE ™ ATN-3 (antibody, IgG1, V domains shown, Human gamma-1 and kappa constant region modules (IgG1, kappa); made in HEK293E cells) VH: EVQLVQSGPEVKKTGASVKISCKASGYSFTSYYMHWVRQAHGQGLEWIGEINPYNGGASYNQKIQGRATFTVDTSTSTAYMEFSSLRSEDTAVYYCARSIYGHSVLDYWGQGTLVTVSS VL: DVVMTQSPLSLSVTIGEPASISCRSSQSLLDSDGKTYLNWLLQKPGQSPKRLIYLVSKRDSGVPDRFSGSGSGTDFTLKISRVEAEDVGVYYCWQGTHFPLTFGQGTKLEIK
5 | – | 0.38 | HE ™ ATN-2 (antibody, IgG1, V domains shown, Human gamma-1 and kappa constant region modules (IgG1, kappa); made in HEK293E cells) VH: EVQLVQSGPEVVKTGASVKISCKASGYSFTSYYMHWVKQAHGQGLEWIGEINPYNGGASYNQKIKGRATFTVDTSTRTAYMEFSSLRSEDTAVYYCARSIYGHSVLDYWGQGTLVTVSS VL: DVVMTQSPLSLSVTIGEPASISCRSSQSLLDSDGKTYLNWLLQKPGQSPQRLIYLVSKRDSGVPDRFSGSGSGTDFTLKISRVEAEDVGVYYCWQGTHFPLTFGQGTKLEIK
